Patent US20050232926A1, “Antibodies specific for cancer associated antigen SM5-1 and uses thereof” (Oncomax Acquisition Corp., priority 2003, published 2005)
Blank lines part the entries; values can stand above or below the molecule they belong to.

Assays:
[1] = target: human SM5-1 antigen (human); assay: BIAcore (SPR), method of Karlsson et al.; antigen preparation and format not stated
[2] = system: human hepatocellular carcinoma cell line QYC; assay: Complement-dependent cytotoxicity (CDC), LDH release; type: cell-based; conditions: 5% normal human sera, 3-4 h, FIG. 8
Source text: Antigen recognized by anti-SM5-1 is highly expressed on the surface of human hepatocellular carcinoma cell line QYC. With human complement in the culture fluid, the target cells bound with chimeric antibodies will be lysed by so-called complement dependent cell mediated cytotoxicity (CDC). When there is an over dose of complement (provided by fresh normal human sera), in a certain range, the degree of lysis is related to antibody concentration. Degree of lysis can be determined by detecting lactate dehydrogenase (LDH) released by the lysed cells.
Cell line for bioactivity determination is QYC, which is without any pathogen. […]
QYC cells in the logarithmic growth stage were taken and counted. […]
50 ul supernatant was transferred from each well to corresponding wells in a second 96-well plate, and 50 ul well-mixed LDH test kit reagent was added into the well of the second plate. […] OD was measured with 490 nm as detecting light wave length, and 630 nm as reference wave length.
The results were analyzed with specific analysis software Select2.2 to make auto analysis and calculate standard curve line: horizontal axis stands for the concentration of the standard product and samples, vertical axis stands for optical adsorption, recovery equation as 4-parameter equation, resulting in a “s” curve line. Half effective dosage (ED50) of the standard product and samples were calculated. […]

[3] = system: SM5-1 antigen; assay: Competition binding assay
[4] = system: hepatocelluer carcinoma cell line QYC; assay: Antigen binding activity by FCM; set-up: species or system human; conditions: compared with chSM5-1
Protocol: The humanized VL and VH were cloned into pMG18-3K expression vector and was expressed transiently in COS cells, yielding humanized version. Humanized antibody in COS cell culture supernatant was quantitated by ELISA and the binding of this version to hepatocelluer carcinoma cell line QYC was determined by FCM. […] The important FR residues that may have influences on binding activity were analyzed and the backmutation assay was carried out. […] The humanized version was designated as ReSM5-1 and its amino acid sequence and nucleotide sequence of both the heavy chain and the light chain shown in Table 3 below.

Kd [1]: 9.31 nM
B1: humanized anti-SM5-1 antibody (ReSM5-1) (antibody, V domains shown)
VH: QVQLVQSGGGVVQPGRSLRLSCKASGYTFTSYVMHWVRQAPGKGLEWIGYIVPYNDGTKYNEKFKGRFTISSDKSKSTAFLQMDSLRPEDTAVYYCARGSRYDWYLDYWGQGTPVTVSS
VL: NIMMTQSPSSLSASVGDRVTITCKSSQSVLYSSNQKNYLAWYQQTPGKAPKLLIYWASTRESGVPSRFSGSGSGTDYTFTISSLQPEDIATYYCHQYFSSYTFGQGTKLQITR
anti-neoplasm effect via CDC [2]: induced the apoptosis and inhibited the growth of tumor cells through the CDC pathway | avidity [3]: equivalent avidity as the murine SM5-1 or chimeric SM5-1 antibody | antigen binding activity [4]: same antigen binding activity as chSM5-1

B2: chSM5-1: mouse-human chimeric antibody with mSM5-1 variable regions (SEQ ID NO:3, 4) and human constant regions (antibody, V domains shown)
VH: EVQLQQSGPELVKPGASVKMSCKASGYTFTSYVMHWVKQKPGQGLDWIGYIVPYNDGTKYNEKFKGKATLTSDKSSSTAYMELSRLTSEDSAVYYCVYGSRYDWYLDVWGAGTTVTVSS
VL: NIMMTQSPSSLAVSAGEKVTMSCKSSQSVLYSSNQKNYLAWYQQKPGQSPKLLIYWASTRESGVPDRFTGSGSGTDFTLTISSVQAEDLAVYYCHQYFSSYTFGGGTKLEIKR
modifications: human constant regions; Mus Musculus
anti-neoplasm effect via CDC [2]: induced the apoptosis and inhibited the growth of tumor cells through the CDC pathway
